Laboratory results taken from patent US12466853B2, “Selective targeting of apoptosis proteins by structurally-stabilized and/or cysteine-reactive NOXA peptides” (priority 2017, dated 2025).
Residue numbers refer to the chain shown, from its start. Positions of bridges follow the written chain, without caps; N, C: chain ends. Non-standard residues stand in square brackets, D forms with d. No end group written: not given here. R8 = C=CCCCCCC[C@@](C)(N)C(=O)O; S5 = C=CCCC[C@](C)(N)C(=O)O

Legend:
MCL-1 = biological target: T1, MCL-1 (Homo sapiens, UniProt Q07820); assay: MCL-1 engagement in A375P lysates (streptavidin pulldown, MCL-1 western); type: binding; conditions: biotinylated SAHB
T1 construct: endogenous protein in lysates from the A375P melanoma cell line; endogenous in cells; host or cells: A375P melanoma cells (lysate)
Description: (§1) Cultured A375P and U937 cells were trypsinized or harvested, respectively, washed with PBS, and lysed by incubating with 1% CHAPS lysis buffer (1% CHAPS, 150 mM NaCl, 50 mM Tris pH 7.4, 100 μM DTT). The protein concentrations of the soluble fraction were measured using a BCA kit according to the manufacturer's instructions (Thermo Scientific). Lysate samples (1 mg) were incubated with vehicle or C-terminally biotinylated NOXA SAHBs (30 μM) overnight in 1% CHAPS lysis buffer at 4° C. Biotin capture was accomplished by incubating the mixture with high-capacity SA agarose (Thermo Scientific) for 2 hours at 4° C., followed by centrifugation and washing the pelleted beads three times with lysis buffer (1 mL). Bead-bound proteins were eluted by boiling in 10% SDS containing 10 mg/mL biotin for 10 minutes and then subjected to electrophoresis and western blotting using BFL-1 (Abcam, #125259) and MCL-1 (Rockland #600-401-394S) antibodies.

FLAG-MCL-1 / tBID = biological target: T2, FLAG-MCL-1 / tBID (Homo sapiens, UniProt Q07820); assay: MCL-1/tBID complex disruption in 293T lysates; type: binding; conditions: FLAG immunoprecipitation
T2 construct: expressed in transfected cells; host or cells: 293T (lysate)
T2 sequence (Q07820 whole entry): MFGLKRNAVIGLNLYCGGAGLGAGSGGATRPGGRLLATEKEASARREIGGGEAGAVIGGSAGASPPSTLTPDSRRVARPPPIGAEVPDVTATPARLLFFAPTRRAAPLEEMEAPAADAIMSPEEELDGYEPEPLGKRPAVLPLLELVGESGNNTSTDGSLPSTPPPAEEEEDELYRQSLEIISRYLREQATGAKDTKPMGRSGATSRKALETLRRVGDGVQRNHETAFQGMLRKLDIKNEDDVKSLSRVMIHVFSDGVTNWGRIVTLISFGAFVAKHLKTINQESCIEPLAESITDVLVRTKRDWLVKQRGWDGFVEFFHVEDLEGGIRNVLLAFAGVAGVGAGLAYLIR
Description: (§2) To evaluate the capacity of biotinylated SAHBs to compete with tBID for interactions with BFL-1 and MCL-1, 293T cells were transfected with either HA-BFL-1ΔC C4S/C19S or FLAG-MCL-1 in the p3XFLAG-CMV-10 vector (Sigma) as above. After 24 hr, cells were trypsinized, washed with PBS, lysed in 1% CHAPS buffer, and the supernatant collected for protein concentration determination by BCA kit. Lysate samples (0.5 mg) were incubated with 0.25 μM recombinant tBID (R&D Systems) and 5 μM biotinylated NOXA SAHBs for 6 h at RT. The mixtures were then subjected to HA or FLAG immunoprecipitation, followed by western analysis using 1:1000 dilutions of HA (Sigma Aldrich, #12CA5), FLAG (Sigma-Aldrich, F7425), and BID (Santa Cruz sc-11423) antibodies.

[1] = biological target: T3, BFL-1ΔC C4S/C19S/C55S / FITC-BID BH3 (Homo sapiens, UniProt Q16548, C19S/C4S/C55S); assay: Competitive fluorescence polarization binding assay, BFL-1ΔC C4S/C19S/C55S
T3 construct: Recombinant anti-apoptotic BFL-1ΔC (aa 1-151) and its cysteine to serine mutants were cloned into PET17b; hexahistidine (N); made in house; host or cells: Escherichia coli LOBSTR BL21(DE3)
T3 sequence (Q16548 1-151 C4S/C19S/C55S): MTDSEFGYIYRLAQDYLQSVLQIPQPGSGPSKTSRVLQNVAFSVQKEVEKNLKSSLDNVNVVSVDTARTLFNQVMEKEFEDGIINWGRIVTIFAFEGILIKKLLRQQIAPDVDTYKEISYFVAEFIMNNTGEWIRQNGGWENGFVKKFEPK
Description: (§3) Fluorescence polarization (FP) assays were performed as previously described (Pitter et al., 2008 (supra)). Briefly, direct binding curves were first generated by FITC-BID BH3 (25 nM) with serial dilutions of anti-apoptotic protein, and FP was measured at 5 min on a SpectraMax M5 microplate reader (Molecular Devices). For competition assays, a serial dilution of acetylated or warhead-bearing NOXA SAHB was added to the indicated recombinant protein at ˜EC75 concentration, as determined by the direct binding assay. FITC-BID BH3 (25 nM) was then added and fluorescence polarization was measured at equilibrium. IC50 values were calculated by nonlinear regression analysis of competitive binding curves using PRISM software (GraphPad).

BCL-XLΔC / FITC-BID BH3 = biological target: T4, BCL-XLΔC / FITC-BID BH3 (Homo sapiens, UniProt Q07817); assay: Competitive fluorescence polarization binding assay, BCL-XLΔC
T4 construct: Recombinant anti-apoptotic BCL-XLΔC (aa 1-212) and MCL-1ΔNΔC (aa 172-329); GST (N, cleaved yes); made in house; host or cells: Escherichia coli BL21(DE3)
T4 sequence (Q07817 1-212, stated change not applied): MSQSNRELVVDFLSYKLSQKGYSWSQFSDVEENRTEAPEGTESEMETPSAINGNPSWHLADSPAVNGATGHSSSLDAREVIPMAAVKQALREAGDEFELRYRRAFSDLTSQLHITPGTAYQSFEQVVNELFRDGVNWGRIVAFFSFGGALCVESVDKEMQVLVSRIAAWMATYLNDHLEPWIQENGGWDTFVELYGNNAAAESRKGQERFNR
Description: as §3

His-BFL-1ΔC = biological target: T5, His-BFL-1ΔC (Homo sapiens, UniProt Q16548); assay: Streptavidin pulldown from recombinant protein mixture, BFL-1; type: binding; conditions: equimolar mixture of recombinant MCL-1, BCL-XL, BFL-1 and biotinylated SAHB, silver stain
T5 construct: Recombinant anti-apoptotic BFL-1ΔC (aa 1-151) and its cysteine to serine mutants were cloned into PET17b; made in house; host or cells: Escherichia coli LOBSTR BL21(DE3)
T5 sequence (Q16548 1-151): T3 sequence (Q16548 1-151 C4S/C19S/C55S) with S4C, S19C, S55C
Description: (§4) WT His-BFL-1ΔC, BCL-XLΔC (tagless), and GST-MCL-1ΔNΔC (1 μM each) were combined and incubated with 3 mM DTT in PBS for thirty minutes at room temperature. Mixtures were treated with vehicle or the indicated C-terminally biotinylated NOXA SAHB (1 μM) for four hours and were then added to 30 μL PBS-washed high-capacity streptavidin (SA) agarose beads (Thermo Fisher Pierce) and incubated with rotation at room temperature for two hours. The beads were then washed three times with NP-40 lysis buffer (1% NP-40, 50 mM Tris pH 8, 100 mM NaCl, 2.5 mM MgCl2) and three times with PBS. To elute bound protein, beads were boiled for ten minutes with 10% SDS containing 10 mg/mL biotin. After elution, samples were boiled with 3×LDS and 2M DTT for twenty minutes. Gel electrophoresis using a 12% Bis-Tris gel was conducted on inputs (2%) and eluates (5 μL) and gels were developed using the Pierce silver staining kit (Thermo Fisher).

GST-MCL-1ΔNΔC = biological target: T6, GST-MCL-1ΔNΔC (Homo sapiens, UniProt Q07820); assay: Streptavidin pulldown from recombinant protein mixture, MCL-1; type: binding; conditions: equimolar mixture of recombinant MCL-1, BCL-XL, BFL-1 and biotinylated SAHB, silver stain
T6 construct: BCL-XLΔC (aa 1-212) and MCL-1ΔNΔC (aa 172-329) were cloned into the PGEX-4T-1; made in house; host or cells: Escherichia coli BL21(DE3)
T6 sequence (Q07820 172-329, stated change not applied): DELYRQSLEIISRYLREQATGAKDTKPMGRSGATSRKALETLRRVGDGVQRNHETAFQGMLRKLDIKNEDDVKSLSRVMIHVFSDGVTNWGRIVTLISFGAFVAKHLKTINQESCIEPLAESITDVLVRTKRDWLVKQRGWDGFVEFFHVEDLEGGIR
Description: as §4

BCL-XLΔC (tagless) = biological target: T7, BCL-XLΔC (tagless) (Homo sapiens, UniProt Q07817); assay: Streptavidin pulldown from recombinant protein mixture, BCL-XL; type: binding; conditions: equimolar mixture of recombinant MCL-1, BCL-XL, BFL-1 and biotinylated SAHB, silver stain
T7 construct: Recombinant anti-apoptotic BCL-XLΔC (aa 1-212) and MCL-1ΔNΔC (aa 172-329); GST (N, cleaved yes); made in house; host or cells: Escherichia coli BL21(DE3)
T7 sequence (Q07817 1-212, stated change not applied): as the sequence (Q07817 1-212, stated change not applied) above
Description: as §4

[2] = biological target: T8, HA-BFL-1ΔC C4S/C19S / tBID (Homo sapiens, UniProt Q16548, C19S/C4S); assay: BFL-1/BH3 complex disruption: competition with tBID in 293T lysates; type: binding; conditions: anti-HA immunoprecipitation
T8 construct: Recombinant anti-apoptotic BFL-1ΔC (aa 1-151) and its cysteine to serine mutants were cloned into PET17b; expressed in transfected cells; host or cells: 293T (lysate)
T8 sequence (Q16548 1-151 C4S/C19S): T3 sequence (Q16548 1-151 C4S/C19S/C55S) with S55C
Description: as §2

full-length BFL-1 = biological target: T9, full-length BFL-1 (Homo sapiens, UniProt Q16548); assay: Covalent crosslinking to full-length BFL-1, recombinant and HA-tagged expressed in 293T cells; type: binding; conditions: recombinant and expressed in 293T cells; somewhat reduced efficiency vs C-terminally truncated species
T9 construct: Recombinant full-length BFL-1 (aa-175) containing an N-terminal hexahistidine tag; made in house
T9 sequence (Q16548 1-175): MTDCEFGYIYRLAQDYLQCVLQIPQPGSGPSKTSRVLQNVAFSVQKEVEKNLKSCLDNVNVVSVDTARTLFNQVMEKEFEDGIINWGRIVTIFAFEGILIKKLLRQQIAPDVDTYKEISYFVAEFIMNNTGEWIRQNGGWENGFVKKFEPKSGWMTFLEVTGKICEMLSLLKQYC
Excerpt: We confirmed that both of our lead constructs could covalently crosslink to full-length BFL-1 protein, which bears a C-terminal helix that could potentially compete with D-NA-NOXA SAHBs for interaction at the canonical BH3-binding pocket in cancer cells. We generated recombinant full-length BFL-1 and expressed HA-tagged full-length BFL-1 in 293T cells, and then conducted crosslinking analyses in vitro and in treated cells, respectively.
Recombinant full-length BFL-1 (aa-175) containing an N-terminal hexahistidine tag was cloned into the PTYB1 vector (New England Biolabs) and purified as above except for the addition of a chitin affinity chromatography and DTT elution step. Protein purity and identity was confirmed by Coomassie staining and western blot analysis using a mouse monoclonal anti-His6 tag antibody (Abcam).
His-BFL-1ΔC C4S/C19S protein (5 μM) was pre-treated with 10 mM DTT in 50 mM Tris (pH 8.0) and 100 mM NaCl for 30 min at room temperature (final volume […]) and then combined with a 10:1 molar ratio of cysteine-reactive NOXA SAHB for an additional 1-hr incubation at room temperature. The samples were then boiled in 3× loading buffer with DTT and electrophoresed on 12% Bis-Tris gel, then subjected to Coomassie staining.

native BFL-1 = biological target: T10, native BFL-1 (Homo sapiens, UniProt Q16548); assay: BFL-1 targeting in A375P lysates (streptavidin pulldown, BFL-1 western); type: binding; conditions: biotinylated SAHB, compared to acetylated construct
T10 construct: endogenous in cells; host or cells: A375P melanoma cells (A10); U937 AML cells (A12), lysates
T10 sequence (Q16548 1-175): T9 sequence (Q16548 1-175)
Description: as §1

Substance	MCL-1 engagement (MCL-1)	dissociation of FLAG-MCL-1/tBID interaction (FLAG-MCL-1 / tBID)	competition for FITC-BID BH3 binding to BFL-1ΔC C4S/C19S/C55S [1]	competition for FITC-BID BH3 binding to BCL-XLΔC (BCL-XLΔC / FITC-BID BH3)	BFL-1 binding / pull down (His-BFL-1ΔC)	MCL-1 binding / pull down (GST-MCL-1ΔNΔC)	BCL-XL binding / pull down (BCL-XLΔC (tagless))	competition with tBID for HA-BFL-1ΔC C4S/C19S interaction [2]	covalent crosslinking to full-length BFL-1 (full-length BFL-1)	BFL-1 binding / pull down (His-BFL-1ΔC; listed as D-NA-NOXA-15 F32A SAHB)	targeting of native BFL-1 (native BFL-1)
AT8LREFGDXLNFRQ (AT[R8]LREFGD[S5]LNFRQ; staple 3-10 (inferred); not fully specified (N-terminus); printed as AT8LREFGDXLNFRQ) [Ac-NOXA-15 R31E, acetylated counterpart of D-NA-NOXA-15 R31E]	approximately equivalent binding to MCL-1	neither D-NA- nor Ac-NOXA15 R31E is able to dissociate the interaction	neither D-NA- nor Ac-NOXA15 R31E competes	neither Ac- nor D-NA-NOXA-15 R31E is able to compete							
AT8LRRAGDXLNFRQ (AT[R8]LRRAGD[S5]LNFRQ; staple 3-10; not fully specified (N-terminus); printed as AT8LRRAGDXLNFRQ) [Ac-NOXA-15 F32A, acetylated counterpart of D-NA-NOXA-15 F32A]	approximately equivalent binding to MCL-1	neither D-NA- nor Ac-NOXA15 F32A is able to dissociate the interaction			no binding	detectable but minimal direct interaction	no binding	incapable of competing with tBID for HA-BFL-1 binding			
JAT8LRRAGDXLNFRQ [D-NA-NOXA-15 F32A]	approximately equivalent binding to MCL-1	neither D-NA- nor Ac-NOXA15 F32A is able to dissociate the interaction			striking competitive advantage for BFL-1 targeting over its acetylated counterpart			near total inhibition of tBID co-immunoprecipitation	covalent crosslinking to recombinant and expressed full-length BFL-1	notably more BFL-1 engagement	enhanced targeting of native BFL-1
